From patent US20060094672A1 (University of Texas, published 2006)
Bridge positions count the residues as written; N and C are the ends. Square brackets hold non-standard residues; d marks the D form. Ends that are not written are not given here. pY = N[C@@H](Cc1ccc(OP(=O)(O)O)cc1)C(=O)O

B1: soluble CPRECESIC (SEQ ID NO:56) peptide (peptide)
peptide: CPRECESIC
modifications: disulfide (positions not given here); not fully specified; also: mix of six MS peaks: possibly different disulfide positions and dimers

Assays:
[1] = biological target: GST-β3cyto (GST fusion protein of the integrin β3 cytoplasmic domain) (UniProt P05106); experiment: phage binding to β3 cytoplasmic domain wells; colonies with Fyn-phosphorylated phage divided by colonies with unphosphorylated phage
Chain of GST-β3cyto (GST fusion protein of the integrin β3 cytoplasmic domain) (P05106 742-788): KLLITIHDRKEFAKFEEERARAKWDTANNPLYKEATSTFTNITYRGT

[2] = biological target: GST-β3cyto (GST fusion protein of the integrin β3 cytoplasmic domain) (UniProt P05106); experiment: phage binding to coated wells; β3 colonies divided by BSA colonies
[3] = biological target: GST-β3cyto (GST fusion protein of the integrin β3 cytoplasmic domain) (UniProt P05106); experiment: phage binding to coated wells; β3 colonies divided by GST colonies
[4] = biological target: GST-β5cyto (GST fusion protein of the integrin β5 cytoplasmic domain) (UniProt P18084); experiment: phage binding to coated microtiter wells; colonies from β5-GST wells divided by colonies from BSA wells
Chain of GST-β5cyto (GST fusion protein of the integrin β5 cytoplasmic domain) (P18084 743-799): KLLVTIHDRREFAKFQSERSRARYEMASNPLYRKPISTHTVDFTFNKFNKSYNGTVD

[5] = biological target: GST-β5cyto (GST fusion protein of the integrin β5 cytoplasmic domain) (UniProt P18084); experiment: phage binding to coated microtiter wells; colonies from β5-GST wells divided by colonies from GST wells
[6] = biological target: GST-β3cyto (GST fusion protein of the integrin β3 cytoplasmic domain) (UniProt P05106); experiment: phage binding to coated microtiter wells; colonies from β3-GST wells divided by colonies from GST wells
[7] = biological target: GST-β3cyto (GST fusion protein of the integrin β3 cytoplasmic domain) (UniProt P05106); experiment: phage binding to coated microtiter wells; colonies from β3-GST wells divided by colonies from BSA wells
[8] = biological target: GST-β5cyto (GST fusion protein of the integrin β5 cytoplasmic domain) (UniProt P18084); experiment: phage binding to coated wells; β5 colonies divided by BSA colonies
[9] = biological target: GST-β5cyto (GST fusion protein of the integrin β5 cytoplasmic domain) (UniProt P18084); experiment: phage binding to β5 cytoplasmic domain wells; colonies with Fyn-phosphorylated phage divided by colonies with unphosphorylated phage
[10] = biological target: GST-β5cyto (GST fusion protein of the integrin β5 cytoplasmic domain) (UniProt P18084); experiment: phage binding to coated wells; β5 colonies divided by GST colonies
[11] = biological target: T1, prohibitin (B cell receptor associated protein; prohibitin receptor protein complex) (mouse); experiment: immunoprecipitation from mouse adipose tissue extract with peptide-(KLAKLAK)2 conjugates, SDS-PAGE (data not shown)
T1 sequence (P67778 2-272, looked up): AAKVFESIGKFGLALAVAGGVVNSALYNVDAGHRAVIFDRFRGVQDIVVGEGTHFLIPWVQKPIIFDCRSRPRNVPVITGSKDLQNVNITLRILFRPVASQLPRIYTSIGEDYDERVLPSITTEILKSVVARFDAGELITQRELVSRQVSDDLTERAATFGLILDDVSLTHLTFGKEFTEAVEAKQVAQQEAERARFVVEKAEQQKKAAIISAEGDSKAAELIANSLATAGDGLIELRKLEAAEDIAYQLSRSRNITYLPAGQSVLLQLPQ

[12] = biological target: Aminopeptidase A (APA, EC 3.4.11.7) (UniProt Q07075 1-957, limits assumed); experiment: cell-based or functional assay
Chain of Aminopeptidase A (APA, EC 3.4.11.7) (Q07075 whole entry): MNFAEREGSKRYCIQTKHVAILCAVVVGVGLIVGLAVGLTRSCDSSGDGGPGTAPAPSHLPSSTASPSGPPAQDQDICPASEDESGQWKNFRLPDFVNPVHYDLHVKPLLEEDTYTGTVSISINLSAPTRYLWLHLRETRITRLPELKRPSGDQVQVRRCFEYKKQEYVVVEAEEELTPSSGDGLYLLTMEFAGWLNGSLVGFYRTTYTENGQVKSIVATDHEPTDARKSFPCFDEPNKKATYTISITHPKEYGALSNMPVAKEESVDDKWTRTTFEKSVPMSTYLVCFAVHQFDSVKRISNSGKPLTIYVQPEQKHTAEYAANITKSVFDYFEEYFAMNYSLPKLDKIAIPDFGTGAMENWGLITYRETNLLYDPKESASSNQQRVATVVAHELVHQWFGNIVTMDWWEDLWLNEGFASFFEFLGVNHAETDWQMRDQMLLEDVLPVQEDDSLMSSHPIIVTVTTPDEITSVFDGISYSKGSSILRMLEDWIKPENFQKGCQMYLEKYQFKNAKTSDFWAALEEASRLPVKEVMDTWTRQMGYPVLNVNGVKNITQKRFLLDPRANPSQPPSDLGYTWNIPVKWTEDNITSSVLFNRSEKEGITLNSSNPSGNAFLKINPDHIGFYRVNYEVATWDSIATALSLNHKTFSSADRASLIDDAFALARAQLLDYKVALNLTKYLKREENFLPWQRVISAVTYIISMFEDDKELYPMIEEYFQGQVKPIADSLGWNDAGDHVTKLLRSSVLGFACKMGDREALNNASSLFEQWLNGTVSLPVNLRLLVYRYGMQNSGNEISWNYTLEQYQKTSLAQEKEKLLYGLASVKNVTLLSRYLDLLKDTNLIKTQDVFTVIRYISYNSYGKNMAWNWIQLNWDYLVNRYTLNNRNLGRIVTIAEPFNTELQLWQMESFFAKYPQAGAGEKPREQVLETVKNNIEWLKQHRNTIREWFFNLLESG

Row | Binder | Phos/Unphos [1] | β3 or β5/BSA [2] | β3 or β5/GST [3] | β3 or β5/BSA [8] | Phos/Unphos [9] | β3 or β5/GST [10] | also measured
1 | MLLG[pY]RFEK (also: displayed on phage pIII) [Fyn-phosphorylated phage displaying … (SEQ ID NO:51)] | 2.5 | 2.7 | 3.5 |  |  |  | 
2 | CKLWQEDGY (also: displayed on phage pIII) [phage displaying … (SEQ ID NO:42)] |  |  |  |  |  |  | β5/BSA Ratio [4]: 665; β5/GST Ratio [5]: 1.8
3 | AGWLYMSWK [phage displaying … (SEQ ID NO:35)] |  |  |  |  |  |  | β3/GST Ratio [6]: 1.8; β3/BSA Ratio [7]: 2.4
4 | TMLR[pY]TVRL (also: displayed on phage pIII) [Fyn-phosphorylated phage displaying … (SEQ ID NO:52)] |  |  |  | 2.2 | 14.3 | 3.4 | 
5 | TMLR[pY]FMFP (also: displayed on phage pIII) [Fyn-phosphorylated phage displaying … (SEQ ID NO:53)] |  |  |  | 3.8 | 4.2 | 2.3 | 
6 | RAIL[pY]RLAN (also: displayed on phage pIII) [Fyn-phosphorylated phage displaying … (SEQ ID NO:50)] | 2.8 | 20 | 1.3 |  |  |  | 
7 | CKGGRAKDCGG[dK][dL][dA][dK][dL][dA][dK][dK][dL][dA][dK][dL][dA][dK] (disulfide 1-9) [… (SEQ ID NO:22) conjugated to (KLAKLAK)2 (SEQ ID NO:1)] |  |  |  |  |  |  | fold enrichment in the … precipitated fraction compared to the CARAC precipitated fraction [11]: > 10 >fold
8 | TLRK[pY]FHSS (also: displayed on phage pIII) [Fyn-phosphorylated phage displaying … (SEQ ID NO:54)] |  |  |  | 15.2 | 3.8 | 3.8 | 
9 | B1 |  |  |  |  |  |  | IC50 for inhibition of APA enzyme activity (α-glutamyl-p-nitroanilide, SK-RC-49/APA cells) [12]: 800 µM
10 | GGGS[pY]RHVE (also: displayed on phage pIII) [Fyn-phosphorylated phage displaying … (SEQ ID NO:49)] | 13.2 | 5.3 | 1.5 |  |  |  | 
